We go through one molecule from paper PMC2529310, “An amphioxus orthologue of the estrogen receptor that does not bind estradiol: Insights into estrogen receptor evolution”.

In this series the target is T1, amphioxus ER (amphiER) (Branchiostoma floridae, UniProt B3V8B7 1-705).
T1 sequence: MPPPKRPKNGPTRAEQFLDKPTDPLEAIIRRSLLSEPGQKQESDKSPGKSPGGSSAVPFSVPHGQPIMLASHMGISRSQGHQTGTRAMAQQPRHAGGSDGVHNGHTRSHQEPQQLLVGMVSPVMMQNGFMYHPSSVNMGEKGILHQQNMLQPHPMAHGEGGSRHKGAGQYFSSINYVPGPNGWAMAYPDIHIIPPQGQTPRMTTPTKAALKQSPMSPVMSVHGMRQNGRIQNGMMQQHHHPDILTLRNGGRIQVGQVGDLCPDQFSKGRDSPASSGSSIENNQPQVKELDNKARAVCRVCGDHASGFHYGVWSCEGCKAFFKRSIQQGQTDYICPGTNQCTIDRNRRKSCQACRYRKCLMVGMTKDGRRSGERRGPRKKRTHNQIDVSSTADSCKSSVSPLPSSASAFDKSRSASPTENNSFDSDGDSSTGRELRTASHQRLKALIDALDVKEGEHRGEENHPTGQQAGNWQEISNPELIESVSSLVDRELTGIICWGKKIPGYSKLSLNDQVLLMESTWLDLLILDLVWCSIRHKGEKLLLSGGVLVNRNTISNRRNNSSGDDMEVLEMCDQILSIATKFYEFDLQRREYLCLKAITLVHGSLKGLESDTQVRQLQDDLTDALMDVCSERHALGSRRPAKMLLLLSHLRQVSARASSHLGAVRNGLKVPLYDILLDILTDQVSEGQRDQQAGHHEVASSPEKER
The series can be described thus: EMSA; EMSA as previously described (ref 93); buffer, salt, pH and temperature not given; in vitro translated proteins in reticulocyte lysate; 10- and 100-fold molar excess of competitors. As to conditions: protein: ivt; chain copies: 2; label: 32P; blunt (only one strand printed; 30 bp stated; strand is nearly self-complementary).

B1: consensus ERE (dsDNA)
DNA 1: CGGGCCGAGGTCACAGTGACCTCGGCCCGT
DNA 2: ACGGGCCGAGGTCACTGTGACCTCGGCCCG
Regarding B1, the binding result is “binds”.
